Measurements as given in patent US10172850B2, “Substituted diketopiperazine analogs for use as drug delivery agents” (MannKind Corporation, priority 2008, dated 2019).

Key:
[1] = rat, in vivo
Method: (§4) Blood samples were taken on the day of dosing for each rat per group at pre-dose (0 minutes), 5, 20, 40, 60, and 120 minutes post dose. […] Body weights ranged from 214-250 grams.

[2] = Mean glucose levels in rats administered various substituted DKP/insulin powders (Example 6, FIG. 9); format: in vivo, female Sprague Dawley rats; conditions: insulin 0.5 U/kg subcutaneous, pre-dose 132 mg/dL
From the text: (§1) For this study, substituted diketopiperazine/insulin powders were made each containing either (E)-3-(4-(3,6-dioxopiperazin-2-yl)butylcarbamoyl)-acrylic acid (Compound 3) and insulin; or (E)-3-(3-(3,6-dioxopiperazin-2-yl)propylcarbamoyl)-acrylic acid (Compound 4) and insulin; or (E)-3-(4-(5-isopropyl-(3,6-dioxopiperazin-2-yl)butylcarbamoyl)-acrylic acid (Compound 5) and insulin, and administered to each of 3 female Sprague Dawley rats per group via pulmonary insufflation.
(§2) The rats were divided into 5 groups as follows. Group 1 rats received a formulation containing Compound 3 with an 11.4% insulin content (Formulation 3) via pulmonary insufflation. Group 2 rats were administered a formulation Compound 3 with a 25% insulin content (Formulation 3) by pulmonary insufflation. Group 3 rats received a formulation of Compound 4 with an 11.4% insulin content (Formulation 4) by pulmonary insufflation. Group 4 rats received a formulation of Compound 5 with 11.4% insulin content by pulmonary insufflation. Group 5 rats received insulin (0.5 U/kg) via subcutaneous administration.
(§3) Blood samples were taken on the day of dosing for each rat per group before (0 minutes) and 10, 20, 40, and 60 minutes after administration of the formulations, except for the insulin control group (group 5), for which an additional sample was collected at 120 minutes after dosing. At each time point, approximately 10 μL of whole blood was collected from the lateral tail vein of rats in each group and analyzed for measurements of insulin and glucose concentrations.

[3] = Mean serum insulin concentrations in rats administered DKP and insulin powders (Example 5, FIG. 8); conditions: 20 minutes post dose; 1.4 mg insulin in saline; pulmonary liquid instillation (INS)
Method: as §4

[4] = Mean serum insulin levels and relative bioavailability of substituted DKP/insulin powders (Example 6, FIG. 10, Table 2)
From the text: as §1, §2, §3

[5] = serum insulin, insulin 0.5 U/kg subcutaneous

Row | Molecule | insulin concentration [1] [μU/mL] | blood glucose level ([2]; 40 minutes post dose) [mg/dL] | blood glucose level ([2]; 1 hour post dose) [mg/dL] | blood glucose level ([2]; 2 hours post dose) [mg/dL] | serum insulin concentration [3] [μU/mL] | serum insulin concentration ([4]; 20 minutes post dose, insulin by subcutaneous injection) [μU/mL] | BIOAVAILABILITY ([4]; insulin 0.5 U/kg subcutaneous (reference)) [%] | Tmax [4, 5] [min] | T½ [4, 5] [min]
1 | O=C(O)/C=C/C(=O)NCCCC1NC(=O)C(CCCNC(=O)/C=C/C(=O)O)NC1=O (stereo not drawn) [Compound 2, (E)-3,6-bis[(N-carboxy-2-propenyl)-amidopropyl]-2,5-diketopiperazine] | 505 |  |  |  |  |  |  |  | 
2 | insulin |  | 43 | 42 | 34 | 6703 | 9360 | 100 | 20 | 9.18
